Consider one molecule from publication PMC3534135, “Interaction of the Transactivation Domain of B-Myb with the TAZ2 Domain of the Coactivator p300: Molecular Features and Properties of the Complex” (PLoS ONE, 2012).

For the assay, the target named is T1, B-Myb transactivation domain (residues 275-376) (mouse, UniProt P48972 275-376).
T1 construct: also called B-Myb TAD
T1 sequence (looked up): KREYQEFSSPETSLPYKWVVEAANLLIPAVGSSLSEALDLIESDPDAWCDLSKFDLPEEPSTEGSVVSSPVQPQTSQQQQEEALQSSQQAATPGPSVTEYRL
Put plainly: NMR titration; 15N/1H HSQC of 15N-labelled p300 TAZ2 (100 µM) without and with 100 or 200 µM unlabelled B-Myb TAD; minimal shift approach; 25°C, 600 MHz; 20 mM Bis-Tris, 100 mM NaCl, 5 mM DTT, 20 µM ZnSO4, pH 5.8; Kd estimated from intermediate exchange. The conditions noted are these: both partners purified.

B1: TAZ2 domain of the coactivator p300 (domain or fragment, human, UniProt Q09472 1726-1812, looked up)
chain: SPGDSRRLSIQRCIQSLVHACQCRNANCSLPSCQKMKRVVQHTKGCKRKTNGGCPICKQLIALCCYHAKHCQENKCPVPFCLNIKQK
notes: human p300, TAZ2 domain, residues 1726-1812, corresponding to murine CBP TAZ2; cloned into the NdeI and BamHI sites of pET23a; No tag is stated; also called p300 TAZ2
For B1, the Kd is 1 to 10 µM.
